{"source": "paper PMC8558294", "about": "“Defects in the STIM1 SOARα2 domain affect multiple steps in the CRAC channel activation cascade” (Cellular and Molecular Life Sciences: CMLS, 2021)", "binders": {"B1": {"name": "STIM1 Δα2 (STIM1 Δ393-398), CFP/YFP-labeled (natural protein, human, UniProt Q13586-1 23-685, looked up)", "chain": "LSHSHSEKATGTSSGANSEESTAAEFCRIDKPLCHSEDEKLSFEAVRNIHKLMDDDANGDVDVEESDEFLREDLNYHDPTVKHSTFHGEDKLISVEDLWKAWKSSEVYNWTVDEVVQWLITYVELPQYEETFRKLQLSGHAMPRLAVTNTTMTGTVLKMTDRSHRQKLQLKALDTVLFGPPLLTRHNHLKDFMLVVSIVIGVGGCWFAYIQNRYSKEHMKKMMKDLEGLHRAEQSLHDLQERLHKAQEEHRTVEVEKVHLEKKLRDEINLAKQEAQRLKELREGTENERSRQKYAEEELEQVREALRKAEKELESHSSWYAPEALQKWLQLTHEVEVQYYNIKKQNAEKQLLVAKEGAEKIKKKRNTLFGSSSLDDVDHKILTAKQALSEVTAALRERLHRWQQIEILCGFQIVNNPGIHSLVAALNIDPSWMGSTRPNPAHFIMTDDVDDMDEEIVSPLSMQSPSLQSSVRQRLTEPQHGLGSQRDLTHSDSESSLHMSDRQRVAPKPPQMSRAADEALNAMTSNGSHRLIEGVHPGSLVEKLPDSPALAKKALLALNHGLDKAHSLMELSPSAPPGGSPHLDSSRSHSPSSPDPDTPSPVGDSRALQASRNTRIPHLAGKKAVAEEDNGSIGEETDSSPGRKKFPLKIFKKPLKK"}}, "target": "Orai1 V102A (human, UniProt Q96D31-1 1-301, V102A)", "sequence (Q96D31 whole entry V102A)": "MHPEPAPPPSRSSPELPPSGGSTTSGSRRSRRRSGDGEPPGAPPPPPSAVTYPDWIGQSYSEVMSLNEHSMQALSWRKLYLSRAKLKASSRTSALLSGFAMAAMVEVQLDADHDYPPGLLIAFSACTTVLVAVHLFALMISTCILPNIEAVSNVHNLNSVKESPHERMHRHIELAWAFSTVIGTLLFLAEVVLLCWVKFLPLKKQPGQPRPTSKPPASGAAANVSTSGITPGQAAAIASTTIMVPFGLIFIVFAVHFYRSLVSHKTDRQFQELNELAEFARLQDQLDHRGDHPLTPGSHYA", "assay": "cell-based or functional assay", "data": [{"binder": "B1", "values": [{"measurement": "Vrev [mV] of Orai1 V102A currents, whole-cell patch clamp in HEK293 cells", "value": 31.6, "unit": "mV"}]}]}
